{"source": "patent US20220040304A1", "about": "“A COMPOSITION FOR CANCER CELL DEATH AND ITS USE” (Industry-University Cooperation Foundation Hanyang …, priority 2018, published 2022)", "key": {"[1]": {"test": "Bioluminescence assay of purified proteins with Co-h substrate (BRET)", "assay_type": "physicochemical", "settings": "protein 1 μM, Co-h 50 μM, 1×PBS", "method": "In addition, 100 μL of buffer (1×PBS) containing the protein purified in Example 1 (final concentration: 1 μM) was dispensed into a 96-well plate (SPL Cell Culture Plate, 96 well (SPL, Cat #30196)), and bioluminescence assay was then performed using 50 μL of buffer (1×PBS) containing a Co-h substrate solution (final concentration: 50 μM), which is a wild-type 2-deoxy derivative. Bioluminescence intensity was immediately measured at a wavelength of 300 to 800 nm using a Thermo Scientific™ Varioskan™ Flash Multimode Reader."}, "SK-BR-3": {"system": "SK-BR-3", "test": "Cell death with Co-h substrate by cell type (SYTOX Green or EthD-1/DAPI)", "assay_type": "cell-based, human", "settings": "SK-BR-3, protein 10 μM, Co-h 150 μM for 5 minutes", "method": "(§1) The cells were seeded at 5×10^5 cells/mL in 96-well plates (SPL Cell Culture Plate, 96 well (SPL, Cat #30096)), and cultured at 37° C. for 24 hours (overnight). After the culture for 24 hours, the cells were washed with FBS & phenol red-free media, and 100 μL of FBS & phenol red-free media containing a purified protein (final concentration: 10 μM) was added, followed by reaction at 37° C. for 24 hours.\nSubsequently, the cells were washed with FBS & phenol red-free media, and 100 μL of FBS & phenol red-free media was added. 100 μL of FBS & Phenol red-free media (RPMI) containing a Co-h substrate solution (final concentration: 150 μM) was added, followed by reaction at 37° C. for 5 minutes.\nAfter the reaction, 50 μL of SYTOX Green (final concentration: 261 nM) or 90 μL of ethidium homodimer (EthD-1) (final concentration 1×), which stains DNA of dead cells, was added, followed by reaction at 37° C. for 30 minutes. 10 μL of DAPI staining DNA of live cells was added, followed by reaction for 5 minutes. Cell death was confirmed by observing KillerRed, SYTOX Green, MiniSOG, EthD-1 and DAPI fluorescence using a confocal microscope."}, "MCF-7 cells [2]": {"system": "MCF-7 cells", "test": "Cell death according to incubation time after various Co-h concentrations (SYTOX Green/DAPI)", "assay_type": "cell-based, human", "settings": "MCF-7, protein 10 μM", "method": "(§2) MCF-7 cells were seeded at 5×10^5 cells/mL in a 96-well plate (SPL Cell Culture Plate, 96 well (SPL, Cat #30096)), and cultured at 37° C. for 24 hours (overnight). After the culture for 24 hours, the cells were washed with FBS & Phenol red-free media (RPMI, Well Gene., Korea, Cat #LM011-02), and 100 μL of an FBS-free medium containing the purified protein (final concentration: 10 μM) was added, followed by reaction at 37° C. for 24 hours.\nAfter the reaction for 24 hours, the cells were washed with FBS & Phenol red-free media (RPMI), and then 100 μL of FBS & Phenol red-free media (RPMI) was added again. The reaction was performed by each concentration of the Co-h substrate solution, and then the cells were incubated at 37° C.\n(§3) After incubation, 50 μL of SYTOX Green (final concentration: 261 nM) staining DNA of dead cells and DAPI 10 μL of DAPI staining DNA of live cells were added, followed by reaction for 5 minutes. Cell death was confirmed by detecting KillerRed, SYTOX Green and DAPI fluorescence according to the light irradiation time for cells using a confocal microscope."}, "MCF-7 cells [3]": {"system": "MCF-7 cells", "test": "Cell death according to incubation time per light irradiation time (SYTOX Green/DAPI)", "assay_type": "cell-based, human", "settings": "MCF-7, protein 10 μM", "method": "as §2\nAfter the reaction for 24 hours, the cells were washed with FBS & Phenol red-free media (RPMI), and then 100 μL of FBS & Phenol red-free media (RPMI) was added again. After light irradiation at 10 mW/cm^2 over time, the cells were incubated at 37° C.\nas §3, with “cells and 10 μL” for “cells and DAPI 10 μL”, “of DAPI (Vector Laboratories Inc., USA) staining DNA” for “of DAPI staining DNA”"}, "MCF-7 cells [4]": {"system": "MCF-7 cells", "test": "Cell death according to presence of serum and protein concentration (Co-h)", "assay_type": "cell-based, human", "settings": "MCF-7, serum-free media or serum-containing media, 12 hours, Co-h 150 μM", "method": "MCF-7 cells were seeded at 5×10^5 cells/mL in a 96-well plate (SPL Cell Culture Plate, 96 well (SPL, Cat #30096)), and cultured at 37° C. for 24 hours (overnight). After the culture for 24 hours, the cells were washed with FBS & Phenol red-free media (RPMI), and 100 μL of FBS & Phenol red-free media (RPMI) or FBS media (RPMI) containing a predetermined concentration of purified protein, followed by reaction at 37° C. for 12 hours.\nAfter the reaction for […], the cells were washed with FBS & Phenol red-free media (RPMI), 100 μL of FBS & Phenol red-free media (RPMI) containing a Co-h substrate solution (final concentration: 150 μM) and SYTOX Green (final concentration: 261 nM) staining DNA of dead cells was added, followed by reaction at 37° C. for 30 minutes.\nAfter the reaction, 10 μL of DAPI staining DNA of live cells was added, followed by reaction for 5 minutes. Cell death was confirmed by observing KillerRed, SYTOX Green and DAPI fluorescence using a confocal microscope."}, "MDA-MB-435": {"system": "MDA-MB-435", "test": "Cell death after light irradiation by cell type (SYTOX Green/DAPI)", "assay_type": "cell-based, human", "settings": "MDA-MB-435, protein 10 μM, light 10 mW/cm^2 for 10 minutes", "method": "MDA-MB-435: (Origin: breast, mammary gland, Species: human—person, Media: DMEM with glucose (4.5 g/L), L-glutamine and sodium pyruvate, 90%; heat inactivated fetal bovine serum (FBS), 10%), purchased from ATCC (USA).\nas §1, with “hours. After the reaction for 24 hours, the cells were washed with FBS & phenol red-free media, and 100 μL of FBS & phenol red-free media was added.” for “hours.”\nAfter irradiation with light at 10 mW/cm^2 for 10 minutes, 50 μL (final concentration: 261 nM) of SYTOX Green staining DNA of dead cells was added, followed by reaction at 37° C. for 30 minutes. 10 μL of DAPI staining DNA of live cells was added, followed by reaction for 5 minutes. Cell death was confirmed by observing KillerRed, SYTOX Green and DAPI fluorescence using a confocal microscope."}}}
{"molecule": "KR: first protein KillerRed, ROS-generating protein (superoxide), expressed from pRSET-KillerRed, 31 kDa (protein, pRSET-KillerRed, first protein KillerRed, ROS-generating protein (superoxide), expressed from pRSET-KillerRed, 31 kDa) MRGSHHHHHHGMASMTGGQQMGRDLYDDDDKDPMLCCMRRTKQVEKNDEDQKISEGGPALFQSDMTFKIFIDGEVNGQKFTIVADGSSKFPHGDFNVHAVCETGKLPMSWKPICHLIQYGEPFFARYPDGISHFAQECFPEGLSIDRTVRFENDGTMTSHHTYELDDTCVVSRITVNCDGFQPDGPIMRDQLVDILPNETHMFPHGPNAVRQLAFIGFTTADGGLMMGHFDSKMTFNGSRAIEIPGPHFVTIITKQMRDTSDKRDHVCQREVAYAHSVPRITSAIGSDED", "values": [{"measurement": "emission in bioluminescence assay (BRET)", "setting": "[1]", "value": 610, "unit": "nm"}]}
{"molecule": "RLuc8.6-KR: fusion protein of RLuc8.6 and KillerRed without lead peptide, 69 kDa (protein, pRSET-RLuc8.6-KillerRed) MRGSHHHHHHGMASMTGGQQMGRDLYDDDDKDPMASKVYDPEQRKRMITGPQWWARCKQMNVLDSFINYYDSEKHAENAVIFLHGNATSSYLWRHVVPHIEPVARCIIPDLIGMGKSGKSGNGSYRLLDHYKYLTAWFELLNLPKKIIFVGHDWGSALAFHYAYEHQDRIKAIVHMESVVDVIESWMGWPDIEEELALIKSEEGEKMVLENNFFVETLLPSKIMRKLEPEEFAAYLEPFKEKGEVRRPTLSWPREIPLVKGGKPDVVQIVRNYNAYLRASDDLPKLFIESDPGFFYNAIVEGAKKFPNTEFVKVKGLHFLQEDAPDEMGKYIKSFVERVLKNEQEFGGGMLCCMRRTKQVEKNDEDQKISEGGPALFQSDMTFKIFIDGEVNGQKFTIVADGSSKFPHGDFNVHAVCETGKLPMSWKPICHLIQYGEPFFARYPDGISHFAQECFPEGLSIDRTVRFENDGTMTSHHTYELDDTCVVSRITVNCDGFQPDGPIMRDQLVDILPNETHMFPHGPNAVRQLAFIGFTTADGGLMMGHFDSKMTFNGSRAIEIPGPHFVTIITKQMRDTSDKRDHVCQREVAYAHSVPRITSAIGSDED", "values": [{"measurement": "cell death with Co-h substrate", "setting": "SK-BR-3", "value": "none of the six breast cancer cell lines were killed"}]}
{"molecule": "RLuc8.6-KR-LP: fusion protein of RLuc8.6, KillerRed and lead peptide WLEAAYQRFL, 71 kDa (protein, pRSET-RLuc8.6-KillerRed-Lead peptide) MRGSHHHHHHGMASMTGGQQMGRDLYDDDDKDPMASKVYDPEQRKRMITGPQWWARCKQMNVLDSFINYYDSEKHAENAVIFLHGNATSSYLWRHVVPHIEPVARCIIPDLIGMGKSGKSGNGSYRLLDHYKYLTAWFELLNLPKKIIFVGHDWGSALAFHYAYEHQDRIKAIVHMESVVDVIESWMGWPDIEEELALIKSEEGEKMVLENNFFVETLLPSKIMRKLEPEEFAAYLEPFKEKGEVRRPTLSWPREIPLVKGGKPDVVQIVRNYNAYLRASDDLPKLFIESDPGFFYNAIVEGAKKFPNTEFVKVKGLHFLQEDAPDEMGKYIKSFVERVLKNEQEFGGGMLCCMRRTKQVEKNDEDQKISEGGPALFQSDMTFKIFIDGEVNGQKFTIVADGSSKFPHGDFNVHAVCETGKLPMSWKPICHLIQYGEPFFARYPDGISHFAQECFPEGLSIDRTVRFENDGTMTSHHTYELDDTCVVSRITVNCDGFQPDGPIMRDQLVDILPNETHMFPHGPNAVRQLAFIGFTTADGGLMMGHFDSKMTFNGSRAIEIPGPHFVTIITKQMRDTSDKRDHVCQREVAYAHSVPRITSAIGSDEDGGGWLEAAYQRFL", "values": [{"measurement": "cell incubation time after which the number of cells stained with SYTOX Green increased", "setting": "MCF-7 cells [2]; 25 μM or 50 μM substrate solution for 5 minutes", "value": "≥ 30", "unit": "min"}, {"measurement": "cell incubation time at which cells stained with SYTOX Green were observed", "setting": "MCF-7 cells [2]; 150 μM substrate solution for 5 minutes", "value": "approximately 10 minutes"}, {"measurement": "cell incubation time after which the number of cells stained with SYTOX Green increased", "setting": "MCF-7 cells [3]; light 10 mW/cm^2 for 1 minute", "value": "over 1 hour"}, {"measurement": "cell incubation time from which the number of cells stained with SYTOX Green increased", "setting": "MCF-7 cells [3]; light 10 mW/cm^2 for 5 minutes or 10 minutes", "value": "approximately 30 minutes"}, {"measurement": "number of cells stained with SYTOX Green according to protein concentration", "setting": "MCF-7 cells [4]", "value": "the higher the number of cells stained with SYTOX Green"}, {"measurement": "cell death after light irradiation", "setting": "MDA-MB-435", "value": "killing the three types of cancer cell lines"}]}
